Assay results: paper PMC5789076, “Molecular basis for the specific and multivariant recognitions of RNA substrates by human hnRNP A2/B1”

Tests used:
Experiment in all cases: ITC; ITC: 10 mM HEPES pH 8.0, 50 mM KCl, 1 mM EDTA, 1 mM BME, 25 C (protein into RNA); EMSA: 10 mM HEPES pH 8.0, 50 mM KCl, 1 mM EDTA, 5 mM BME, room temperature 30
hnRNP A2/B1 RRM1-RRM2 = hnRNP A2/B1 RRM1-RRM2 (human, UniProt P22626 12-195); conditions: protein: recombinant; tags: N-terminal His6-SUMO removed by Ulp1; single strand
Sequence of hnRNP A2/B1 RRM1-RRM2 (P22626 12-195): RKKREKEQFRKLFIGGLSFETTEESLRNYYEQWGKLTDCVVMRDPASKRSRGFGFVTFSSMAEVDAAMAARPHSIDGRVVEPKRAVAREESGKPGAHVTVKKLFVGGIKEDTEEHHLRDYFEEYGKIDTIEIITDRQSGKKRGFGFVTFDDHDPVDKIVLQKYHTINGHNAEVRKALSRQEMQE

[1] = molecular target: hnRNP A2/B1 RRMs + RGG box (human, UniProt P22626 1-249); conditions: protein: recombinant; tags: N-terminal His6-SUMO removed by Ulp1; single strand
Sequence of hnRNP A2/B1 RRMs + RGG box (P22626 1-249): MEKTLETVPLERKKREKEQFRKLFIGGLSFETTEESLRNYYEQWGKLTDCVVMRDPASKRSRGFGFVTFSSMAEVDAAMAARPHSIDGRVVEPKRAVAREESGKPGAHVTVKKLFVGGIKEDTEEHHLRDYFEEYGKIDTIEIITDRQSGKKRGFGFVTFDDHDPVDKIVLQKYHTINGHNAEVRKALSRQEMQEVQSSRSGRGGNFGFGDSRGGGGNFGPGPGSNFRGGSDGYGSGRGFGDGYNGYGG

[2] = molecular target: hnRNP A2/B1 (12-195) E183A (human, UniProt P22626 12-195, E183A); conditions: protein: recombinant; tags: His6-SUMO removed; single strand
Sequence of hnRNP A2/B1 (12-195) E183A (P22626 12-195 E183A): as the sequence (P22626 12-195) above, with E172A counted along it

[3] = molecular target: hnRNP A2/B1 (12-195) D49A (human, UniProt P22626 12-195, D49A); conditions: protein: recombinant; tags: His6-SUMO removed; single strand
Sequence of hnRNP A2/B1 (12-195) D49A (P22626 12-195 D49A): as the sequence (P22626 12-195) above, with D38A counted along it

[4] = molecular target: hnRNP A2/B1 (12-195) K113A (human, UniProt P22626 12-195, K113A); conditions: protein: recombinant; tags: His6-SUMO removed; single strand
Sequence of hnRNP A2/B1 (12-195) K113A (P22626 12-195 K113A): as the sequence (P22626 12-195) above, with K102A counted along it

[5] = molecular target: hnRNP A2/B1 (12-195) F66A (human, UniProt P22626 12-195, F66A); conditions: protein: recombinant; tags: His6-SUMO removed; single strand
Sequence of hnRNP A2/B1 (12-195) F66A (P22626 12-195 F66A): as the sequence (P22626 12-195) above, with F55A counted along it

[6] = molecular target: hnRNP A2/B1 (12-195) F157A (human, UniProt P22626 12-195, F157A); conditions: protein: recombinant; tags: His6-SUMO removed; single strand
Sequence of hnRNP A2/B1 (12-195) F157A (P22626 12-195 F157A): as the sequence (P22626 12-195) above, with F146A counted along it

[7] = molecular target: hnRNP A2/B1 (12-195) E92A (human, UniProt P22626 12-195, E92A); conditions: protein: recombinant; tags: His6-SUMO removed; single strand
Sequence of hnRNP A2/B1 (12-195) E92A (P22626 12-195 E92A): as the sequence (P22626 12-195) above, with E81A counted along it

[8] = molecular target: hnRNP A2/B1 (12-195) K120A (human, UniProt P22626 12-195, K120A); conditions: protein: recombinant; tags: His6-SUMO removed; single strand
Sequence of hnRNP A2/B1 (12-195) K120A (P22626 12-195 K120A): as the sequence (P22626 12-195) above, with K109A counted along it

hnRNP A2/B1 full-length = hnRNP A2/B1 full-length (human, UniProt P22626 1-353); conditions: protein: recombinant; tags: prepared with His6(-SUMO) tag or untagged; single strand
Sequence of hnRNP A2/B1 full-length (P22626 whole entry): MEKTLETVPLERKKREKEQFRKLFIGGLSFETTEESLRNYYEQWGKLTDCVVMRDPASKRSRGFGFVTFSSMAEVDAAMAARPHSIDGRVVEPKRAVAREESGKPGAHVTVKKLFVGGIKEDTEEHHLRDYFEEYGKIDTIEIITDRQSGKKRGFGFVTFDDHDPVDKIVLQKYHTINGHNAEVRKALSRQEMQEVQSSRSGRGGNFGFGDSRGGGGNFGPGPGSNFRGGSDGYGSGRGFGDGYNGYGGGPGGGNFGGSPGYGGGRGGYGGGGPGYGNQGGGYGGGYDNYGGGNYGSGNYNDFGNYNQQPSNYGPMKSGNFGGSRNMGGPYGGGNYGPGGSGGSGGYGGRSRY

[9] = molecular target: hnRNP A2/B1 (12-195) Q19A (human, UniProt P22626 12-195, Q19A); conditions: protein: recombinant; tags: His6-SUMO removed; single strand
Sequence of hnRNP A2/B1 (12-195) Q19A (P22626 12-195 Q19A): as the sequence (P22626 12-195) above, with Q8A counted along it

[10] = molecular target: hnRNP A2/B1 (12-195) F24A (human, UniProt P22626 12-195, F24A); conditions: protein: recombinant; tags: His6-SUMO removed; single strand
Sequence of hnRNP A2/B1 (12-195) F24A (P22626 12-195 F24A): as the sequence (P22626 12-195) above, with F13A counted along it

[11] = molecular target: hnRNP A2/B1 (12-195) H108A (human, UniProt P22626 12-195, H108A); conditions: protein: recombinant; tags: His6-SUMO removed; single strand
Sequence of hnRNP A2/B1 (12-195) H108A (P22626 12-195 H108A): as the sequence (P22626 12-195) above, with H97A counted along it

[12] = molecular target: hnRNP A2/B1 (12-195) F115A (human, UniProt P22626 12-195, F115A); conditions: protein: recombinant; tags: His6-SUMO removed; single strand
Sequence of hnRNP A2/B1 (12-195) F115A (P22626 12-195 F115A): as the sequence (P22626 12-195) above, with F104A counted along it

**Q.** For AGGACUGC (ssRNA) [8mer], which Kd (hnRNP A2/B1 RRM1-RRM2) is on record?
**A.** 276 ± 27.5 nM

**Q.** What about the Kd [1] of the same binder?
**A.** 465 ± 53.2 nM

**Q.** With AAGGACUAGC (ssRNA) [10mer] as the binder, how does the Kd [2] read?
**A.** 290 ± 47.8 nM

**Q.** What about the Kd (hnRNP A2/B1 RRM1-RRM2) of the same binder?
**A.** 115 ± 11.5 nM

**Q.** And the Kd [3]?
**A.** 562 ± 69.4 nM

**Q.** And the Kd [1]?
**A.** 26.5 ± 1.8 nM

**Q.** What about the Kd [4] of the same binder?
**A.** 813 ± 1.17 nM

**Q.** And the Kd [5]?
**A.** 763 ± 10.2 nM

**Q.** What about the Kd [6] of the same binder?
**A.** 535 ± 97.1 nM

**Q.** What about the Kd [7] of the same binder?
**A.** 752 ± 85.5 nM

**Q.** What about the Kd [8] of the same binder?
**A.** 413 ± 50.5 nM

**Q.** What about the Kd (hnRNP A2/B1 full-length) of the same binder?
**A.** 103 ± 8.93 nM

**Q.** And the Kd [9]?
**A.** 440 ± 42 nM

**Q.** And the Kd [10]?
**A.** 457 ± 35.5 nM

**Q.** And the Kd [11]?
**A.** 167 ± 19.2 nM

**Q.** And the Kd [12]?
**A.** 781 ± 87.7 nM

**Q.** AAGAACUAGC (ssRNA) [G3A] was tested. Which Kd (hnRNP A2/B1 RRM1-RRM2) did it give?
**A.** 244 ± 25.3 nM

**Q.** AAGCACUAGC (ssRNA) [G3C] was tested. Which Kd (hnRNP A2/B1 RRM1-RRM2) did it give?
**A.** 952.4 ± 1.14 nM

**Q.** Which Kd (hnRNP A2/B1 RRM1-RRM2) does the source give for AAGGACCAGC (ssRNA) [U6C] here?
**A.** 184 ± 16.3 nM

**Q.** With AAGGACAAGC (ssRNA) [U6A] as the binder, how does the Kd (hnRNP A2/B1 RRM1-RRM2) read?
**A.** 204 ± 19.9 nM

**Q.** How did the Kd (hnRNP A2/B1 RRM1-RRM2) turn out when AAGGACUGGC (ssRNA) [A7G] was run?
**A.** 108 ± 11.5 nM

**Q.** How did the Kd (hnRNP A2/B1 RRM1-RRM2) turn out when AAGGACUAAC (ssRNA) [G8A] was run?
**A.** 107 ± 16.2 nM

**Q.** How did the Kd (hnRNP A2/B1 RRM1-RRM2) turn out when AAGGACUACC (ssRNA) [G8C] was run?
**A.** 292 ± 44.2 nM

**Q.** How did the Kd (hnRNP A2/B1 RRM1-RRM2) turn out when AAGGACUAUC (ssRNA) [G8U] was run?
**A.** 272 ± 30.7 nM

**Q.** For AAGGACUAGC (ssRNA, m6A at position 5) [10mer-m6A], which Kd (hnRNP A2/B1 RRM1-RRM2) is on record?
**A.** 1320 ± 143 nM

**Q.** And the Kd [1]?
**A.** 176 ± 25.3 nM

**Q.** What about the Kd (hnRNP A2/B1 full-length) of the same binder?
**A.** 172 ± 25.6 nM

**Q.** With AGGACUGC (ssRNA, m6A at position 4) [8mer-m6A] as the binder, how does the Kd (hnRNP A2/B1 RRM1-RRM2) read?
**A.** 461 ± 47.4 nM

**Q.** And the Kd [1]?
**A.** 505 ± 44.2 nM

**Q.** Which Kd (hnRNP A2/B1 RRM1-RRM2) does the source give for ACGGACUAGC (ssRNA) [A1C] here?
**A.** 662 ± 54.3 nM

**Q.** AUGGACUAGC (ssRNA) [A1U] was tested. Which Kd (hnRNP A2/B1 RRM1-RRM2) did it give?
**A.** 532 ± 66.7 nM

**Q.** How did the Kd (hnRNP A2/B1 RRM1-RRM2) turn out when AAAGACUAGC (ssRNA) [G2A] was run?
**A.** 316 ± 37 nM

**Q.** Which Kd (hnRNP A2/B1 RRM1-RRM2) does the source give for AACGACUAGC (ssRNA) [G2C] here?
**A.** 699 ± 88.5 nM

**Q.** How did the Kd (hnRNP A2/B1 RRM1-RRM2) turn out when AAUGACUAGC (ssRNA) [G2U] was run?
**A.** 581 ± 58.1 nM
